Blank lines part the entries; values can stand above or below the molecule they belong to.
Legend:
BglC = target: T1, BglC (Thermobifida fusca, UniProt Q9LAV5); assay: 4-nitrophenol release at […] nm, continuous plate assay, non-linear regression; assay type: biochemical
T1 sequence (Q9LAV5 1-484): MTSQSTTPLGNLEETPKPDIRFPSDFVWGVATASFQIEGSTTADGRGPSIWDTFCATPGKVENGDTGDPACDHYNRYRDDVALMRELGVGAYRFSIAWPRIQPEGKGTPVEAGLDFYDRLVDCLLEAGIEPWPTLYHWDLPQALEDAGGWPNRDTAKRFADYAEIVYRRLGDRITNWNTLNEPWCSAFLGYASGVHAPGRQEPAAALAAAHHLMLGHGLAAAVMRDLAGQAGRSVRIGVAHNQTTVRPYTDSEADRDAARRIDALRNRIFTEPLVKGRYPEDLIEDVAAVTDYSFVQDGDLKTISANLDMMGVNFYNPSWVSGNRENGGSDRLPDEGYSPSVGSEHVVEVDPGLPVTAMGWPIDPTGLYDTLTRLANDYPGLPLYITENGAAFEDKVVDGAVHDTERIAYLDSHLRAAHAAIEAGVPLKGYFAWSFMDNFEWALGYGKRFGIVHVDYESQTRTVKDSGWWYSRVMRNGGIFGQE

purified protein = substrate: O=[N+]([O-])c1ccc(O[C@@H]2O[C@H](CO)[C@@H](O)[C@H](O)[C@H]2O)cc1; assay: purified protein; settings: 100 mM sodium phosphate pH 7.0, 37 °C, 2.63 nM enzyme

- Ki (BglC): 6.63 ± 1.3 µM
Molecule: O=C1O[C@H](CO)[C@@H](O)[C@H](O)[C@H]1O [D-glucono-δ-lactone]

B1: BglC (Thermobifida fusca) (protein)
chain: T1 sequence (Q9LAV5 1-484)
- Km (purified protein): 0.56 ± 0.01 mM
- kcat (purified protein): 48.68 s⁻¹

— paper doi:10.1101/2022.07.22.501097v1 (biorxiv, 2022)
